Measured values taken from patent US20190202907A1 (180 THERAPEUTICS, published 2019).
Residue numbers refer to the chain shown, from its start.

T1: human ST2L (human, UniProt Q01638 19-328, limits assumed)
T1 construct: also called IL-1R4; IL-33Ra
T1 sequence (looked up): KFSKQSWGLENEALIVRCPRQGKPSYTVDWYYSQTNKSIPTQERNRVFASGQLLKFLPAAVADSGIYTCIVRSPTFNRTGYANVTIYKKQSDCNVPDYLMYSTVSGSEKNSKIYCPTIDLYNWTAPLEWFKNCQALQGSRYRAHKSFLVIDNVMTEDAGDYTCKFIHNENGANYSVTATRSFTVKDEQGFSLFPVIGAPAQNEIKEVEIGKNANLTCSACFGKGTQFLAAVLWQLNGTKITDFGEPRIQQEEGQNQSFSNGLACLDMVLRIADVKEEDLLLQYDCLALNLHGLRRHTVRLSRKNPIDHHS

B1: STLM103 (antibody, from another filing, V domains shown)
VH: EVQLLESGGGLVQPGGSLRLSCAASGFTFSFYDMFWVRQAPGKGLEWVSSIRGEGGRTDYADSVKGRFTISRDNSKNTLYLQMNSLRAEDTAVYYCARDPWSTEGSFFVLDYWGQGTLVTVSS
VL: EIVLTQSPATLSLSPGERATLSCRASQSVDDDLAWYQQKPGQAPRLLIYDASNRATGIPARFSGSGSGTDFTLTISSLEPEDFAVYYCQQYIGAPITFGQGTKVEIK
B2: STLM108 (antibody, from another filing, V domains shown)
VH: B1 VH with F31I, F35I, S50T, R52K, R57G, D59Y
VL: B1 VL
B3: STLM208 (antibody, V domains shown)
VH: B1 VH with F31I, F35I, R57G, D59Y
VL: B1 VL with G93T, I96L
B4: STLM211 (antibody, from another filing, V domains shown)
VH: B1 VH with F31G, D33A, F35I, S50Y, R52E, R57E, D59Y
VL: EIVLTQSPATLSLSPGERATLSCRASQSVDDDLAWYQQKPGQAPRLLIYDASNRATGIPARFSGSGSGTDFTLTISSLEPEDFAVYYCQQYNDAITFGQGTKVEIK
B5: STLM209 (antibody, from another filing, V domains shown)
VH: B1 VH with F31I, F35I, S50T, R57G, D59S
VL: B1 VL with G93T, I96L
B6: STLM219 (antibody, from another filing, V domains shown)
VH: B1 VH with F31G, S50D, R52G, R57S, D59N
VL: B1 VL
B7: STLM207 (antibody, from another filing, V domains shown)
VH: B1 VH with F31S, F35I, S50T, R57T, D59A
VL: B1 VL with G93T, I96L
B8: STLM222 (antibody, from another filing, V domains shown)
VH: B1 VH with F31I, D33S, S50D, R52G, R57G, D59S
VL: B1 VL
B9: STLM221 (antibody, from another filing, V domains shown)
VH: B1 VH with F31I, S50Y, R57D, D59N
VL: B1 VL
B10: STLM220 (antibody, from another filing, V domains shown)
VH: B1 VH with S50D, R57G, D59A
VL: B1 VL
B11: STLM123 (antibody, from another filing, V domains shown)
VH: B1 VH with F31D, D33A, S50A, R52E, R57E, D59N
VL: B1 VL with G93T, I96L
B12: STLM212 (antibody, from another filing, V domains shown)
VH: B1 VH with F31V, F35I, S50T, R57G, D59Y
VL: B4 VL
B13: STLM107 (antibody, from another filing, V domains shown)
VH: B1 VH with F31D, D33A, S50A, R52E, R57E, D59N
VL: B1 VL
B14: STLM217 (antibody, from another filing, V domains shown)
VH: B1 VH with F31V, S50D, R52K, R57E, D59S
VL: B1 VL
B15: STLM218 (antibody, from another filing, V domains shown)
VH: B1 VH with F31V, Y32D, D33S, R52E, E54N, R57A, D59Y
VL: B1 VL
B16: STLM210 (antibody, from another filing, V domains shown)
VH: B1 VH with F31D, Y32D, D33A, F35I, S50Y, R52G, E54N, R57T, D59Y
VL: B4 VL
B17: STLM213 (antibody, from another filing, V domains shown)
VH: B1 VH with F35I, S50T, R57D, D59N
VL: B1 VL with G93D, I96L
B18: STLM206 (antibody, from another filing, V domains shown)
VH: B1 VH with F31I, F35I, S50T, R57S, D59Y
VL: B1 VL with G93T, I96L
B19: STLM124 (antibody, from another filing, V domains shown)
VH: B1 VH with F31I, F35I, S50T, R52K, R57G, D59Y
VL: B1 VL with G93T, I96L
B20: STLM226 (antibody, from another filing, V domains shown)
VH: EVQLVQSGAEVKKPGATVKISCKVSAFNIKDDYMHWVQQAPGKGLEWMGRIDPAIGNTEYAEKFQGRVTITADTSTDTAYMELSSLRSEDTAVYYCATGDFYAMAYWGQGTLVTVSS
VL: DIQMTQSPSSLSASVGDRVTITCITNTDIDDVIHWYQQKPGKAPKLLIYEGNTLRPGVPSRFSGSGSGTDFTLTISSLQPEDFATYYCLQSDNLLTFGQGTKLEIK
B21: STLM232 (antibody, from another filing, V domains shown)
VH: B20 VH
VL: B20 VL with L73F, F83I, L94M
B22: STLM230 (antibody, from another filing, V domains shown)
VH: B20 VH
VL: B20 VL with L94M
B23: STLM229 (antibody, from another filing, V domains shown)
VH: B20 VH
VL: B20 VL with L11V, L94M
B24: STLM228 (antibody, from another filing, V domains shown)
VH: B20 VH
VL: B20 VL with S10T, D70E, E81D, L94M
B25: STLM231 (antibody, from another filing, V domains shown)
VH: B20 VH
VL: B20 VL with A43V, F83V, L94M
B26: STLM227 (antibody, from another filing, V domains shown)
VH: B20 VH
VL: B20 VL with M4L, S10F, D70E, L94M

Target: cyno ST2L (cyno)
Assay: affinity table; method not stated

Binder	Kd	koff	kon
B1	0.031 nM	0.000202 s⁻¹	6.42e+06 M⁻¹ s⁻¹
B2	0.029 nM	0.000598 s⁻¹	2.05e+07 M⁻¹ s⁻¹
B3	0.005 nM	7.02e-05 s⁻¹	1.39e+07 M⁻¹ s⁻¹
B4	0.014 nM	0.00139 s⁻¹	1e+08 M⁻¹ s⁻¹
B5	0.009 nM	0.000311 s⁻¹	3.39e+07 M⁻¹ s⁻¹
B6	0.022 nM	0.00023 s⁻¹	1.07e+07 M⁻¹ s⁻¹
B7	0.021 nM	0.00207 s⁻¹	1e+08 M⁻¹ s⁻¹
B8	0.029 nM	0.000345 s⁻¹	1.18e+07 M⁻¹ s⁻¹
B9	0.022 nM	0.00013 s⁻¹	6.04e+06 M⁻¹ s⁻¹
B10	0.009 nM	0.00014 s⁻¹	1.6e+07 M⁻¹ s⁻¹
B11	0.005 nM	0.000519 s⁻¹	1e+08 M⁻¹ s⁻¹
B12	0.024 nM	0.000346 s⁻¹	1.43e+07 M⁻¹ s⁻¹
B13	0.007 nM	0.00055 s⁻¹	1e+08 M⁻¹ s⁻¹
B14	0.004 nM	0.000138 s⁻¹	3.81e+07 M⁻¹ s⁻¹
B15	0.018 nM	0.000265 s⁻¹	1.45e+07 M⁻¹ s⁻¹
B16	0.009 nM	0.000528 s⁻¹	5.7e+07 M⁻¹ s⁻¹
B17	0.008 nM	0.000124 s⁻¹	1.64e+07 M⁻¹ s⁻¹
B18	0.006 nM	0.000583 s⁻¹	9.4e+07 M⁻¹ s⁻¹
B19	0.03 nM	0.00257 s⁻¹	8.71e+07 M⁻¹ s⁻¹
B20	0.301 nM	0.0301 s⁻¹	1e+08 M⁻¹ s⁻¹
B21	0.08 nM	0.00797 s⁻¹	1e+08 M⁻¹ s⁻¹
B22	0.144 nM	0.0073 s⁻¹	5.06e+07 M⁻¹ s⁻¹
B23	0.085 nM	0.0085 s⁻¹	1e+08 M⁻¹ s⁻¹
B24	0.155 nM	0.0155 s⁻¹	1e+08 M⁻¹ s⁻¹
B25	0.172 nM	0.0143 s⁻¹	8.27e+07 M⁻¹ s⁻¹
B26	0.294 nM	0.0294 s⁻¹	1e+08 M⁻¹ s⁻¹

Target: T1, human ST2L
Assay: affinity table; method not stated

Binder	Kd	koff	kon
B1	0.041 nM	0.000163 s⁻¹	3.97e+06 M⁻¹ s⁻¹
B2	0.097 nM	0.000222 s⁻¹	2.29e+06 M⁻¹ s⁻¹
B3	0.011 nM	6.76e-05 s⁻¹	5.97e+06 M⁻¹ s⁻¹
B4	0.029 nM	0.000483 s⁻¹	1.7e+07 M⁻¹ s⁻¹
B5	0.026 nM	0.00017 s⁻¹	6.59e+06 M⁻¹ s⁻¹
B6	0.027 nM	0.000201 s⁻¹	7.54e+06 M⁻¹ s⁻¹
B7	0.048 nM	0.000395 s⁻¹	8.33e+06 M⁻¹ s⁻¹
B8	0.037 nM	0.000301 s⁻¹	8.22e+06 M⁻¹ s⁻¹
B9	0.035 nM	9.61e-05 s⁻¹	2.73e+06 M⁻¹ s⁻¹
B10	0.016 nM	9.53e-05 s⁻¹	5.8e+06 M⁻¹ s⁻¹
B11	0.015 nM	0.000208 s⁻¹	1.37e+07 M⁻¹ s⁻¹
B12	0.032 nM	0.000398 s⁻¹	1.24e+07 M⁻¹ s⁻¹
B13	0.012 nM	0.000341 s⁻¹	2.9e+07 M⁻¹ s⁻¹
B14	0.017 nM	0.000126 s⁻¹	7.27e+06 M⁻¹ s⁻¹
B15	0.023 nM	0.000224 s⁻¹	9.89e+06 M⁻¹ s⁻¹
B16	0.019 nM	0.000227 s⁻¹	1.21e+07 M⁻¹ s⁻¹
B17	0.014 nM	0.000108 s⁻¹	7.54e+06 M⁻¹ s⁻¹
B18	0.025 nM	0.00016 s⁻¹	6.39e+06 M⁻¹ s⁻¹
B19	0.046 nM	0.000756 s⁻¹	1.65e+07 M⁻¹ s⁻¹
B20	0.09 nM	0.00193 s⁻¹	2.16e+07 M⁻¹ s⁻¹
B21	0.025 nM	0.000449 s⁻¹	1.78e+07 M⁻¹ s⁻¹
B22	0.038 nM	0.000426 s⁻¹	1.11e+07 M⁻¹ s⁻¹
B23	0.035 nM	0.000445 s⁻¹	1.29e+07 M⁻¹ s⁻¹
B24	0.052 nM	0.00104 s⁻¹	2.01e+07 M⁻¹ s⁻¹
B25	0.046 nM	0.000913 s⁻¹	1.97e+07 M⁻¹ s⁻¹
B26	0.064 nM	0.0017 s⁻¹	2.66e+07 M⁻¹ s⁻¹
